# Biological target: MBP-Z-N6K (Z-domain protein with Asn6 mutated to Lys, fused with maltose binding protein) [MBP: P0AEX9]
# Test: covalent protein-protein cross-linking after sodium periodate treatment, 4 hours, SDS-PAGE
substance,measurement,value
AFB-D36DOPA (ZSPA affibody with L-DOPA genetically incorporated at position 36) (designed binder),cross-linked products,70 to 75%

# Reference: patent publication US20190017043A1
